Assay [1] deals with soluble HPV16 L1 capsomer (human papillomavirus type 16 (HPV16)). Nature of the assay: cryo-EM structure.
Assay [2] addresses HPV16 L1 (as in the HPV16L1 binding assays and on pseudovirus psV16) (Human papillomavirus type 16; L1 of …, UniProt J3SRV0). Briefly: cell-based or functional assay.

Consider two molecules from paper PMC12551957, “Human monoclonal antibodies to HPV16 show evidence for common developmental pathways and public epitopes” (PLOS Pathogens, 2025).

HPV16 L1 (as in the HPV16L1 binding assays and on pseudovirus psV16), sequence (P03101 whole entry): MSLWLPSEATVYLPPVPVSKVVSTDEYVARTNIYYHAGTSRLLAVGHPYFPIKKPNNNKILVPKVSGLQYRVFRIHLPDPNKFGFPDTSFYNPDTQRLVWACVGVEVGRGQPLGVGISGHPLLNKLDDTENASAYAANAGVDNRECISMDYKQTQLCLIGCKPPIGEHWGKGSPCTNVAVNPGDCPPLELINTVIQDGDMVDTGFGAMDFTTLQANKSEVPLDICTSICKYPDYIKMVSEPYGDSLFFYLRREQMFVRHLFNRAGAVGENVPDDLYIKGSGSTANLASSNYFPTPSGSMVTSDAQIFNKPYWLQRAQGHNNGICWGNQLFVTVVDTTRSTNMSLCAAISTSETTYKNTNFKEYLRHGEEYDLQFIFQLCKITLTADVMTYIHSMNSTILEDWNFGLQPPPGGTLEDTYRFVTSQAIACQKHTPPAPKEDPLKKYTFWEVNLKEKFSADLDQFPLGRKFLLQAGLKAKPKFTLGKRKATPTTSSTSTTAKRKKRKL

The stoichiometry N is a count of units in the complex or per binding partner. soluble HPV16 L1 capsomer (complex) came in with a stoichiometry N in assay [1] of 5.

B1: D24.1M01 with the germline CDRL2 (YGN) (antibody, V domains shown)
VH: QVTLRESGPALVKPTQTLTLTCTISGLSLTTSGVCVSWIRQPPGKALEWLALIDWDDDKYYSTSLRTRLTISKDISKNQVVLTMTNMDPVDTATFFCARTRCTSNWGYYFDSWGRGTRVTVSS
VL: QSVLTQPPSVSGAPGQRVTISCTGSASNIGAGYDVHWYQQVPGAAPKLLIYGNSNRPSGVPDRISGSKSGTSASLAISGLQAEDEADYYCQSYDDSLRGWVFGGGTKLTVL
As for B1, in assay [2], the “psV16 neutralization, fold increase of IC50 against the mature antibody” value turned out to be 5.3 fold.
